The text below walks through data of patent US20030228309A1 (published 2003).

Test [1] addresses T1, Biotinylated TRAIL (AM100200-Peprotech) (Homo sapiens (Human), UniProt P50591 114-281, biotinylated (sites not given)). Kind of test: competition ELISA, soluble TR4 (TR4-Fc positive control) competes with plate-captured TR4-Fc for biotinylated TRAIL; assay 1. The method, then:
(§1) Goat anti-human Fc was diluted to 0.1 micrograms/ml in coating buffer. The Immulon 4 microplate was coated with 100 microliters per well of the Goat anti-human Fc solution and incubated overnight at 4° C. The coating solution was decanted from the plate, and blocking solution was dispensed at 200 microliters per well. The plate was incubated at room temperature for 1 hour. After the 1 hour incubation period, the blocking solution was decanted from the plate and 1 microgram/mL of TR4-Fc was dispensed at 100 microliters/well and incubated for 2 hours at room temperature. After the incubation, the plate was washed five times manually using a Wheaton manifold.
(§2) Hybridoma supernatants were (previously) prepared in a low binding dilution plate using diluent. The supernatants were prepared in duplicate and were diluted from the stock concentration with 2.5 fold dilutions for the 7 subsequent wells. If a purified form of the antibody was available, the starting concentration was 5 micrograms/mL. The positive control (TR4-Fc) was diluted from 5 micrograms/mL. 100 microliters was transferred into the ELISA plate and pre-incubated for 30 minutes at room temperature. 20 microliters of biotinylated TRAIL was added at 5 micrograms/mL to the 100 gL of the supernatant and mixed. The combined 120 microliters incubated for 2 hours at RT. […]

Test [2] deals with T1, Biotinylated TRAIL (AM100200-Peprotech). Kind of test: competition ELISA, soluble TR4 (TR4-Fc positive control) competes with plate-captured TR4-Fc for biotinylated TRAIL; assay 2. The method, then:
as §1, §2

T1 sequence (P50591 114-281 limits assumed): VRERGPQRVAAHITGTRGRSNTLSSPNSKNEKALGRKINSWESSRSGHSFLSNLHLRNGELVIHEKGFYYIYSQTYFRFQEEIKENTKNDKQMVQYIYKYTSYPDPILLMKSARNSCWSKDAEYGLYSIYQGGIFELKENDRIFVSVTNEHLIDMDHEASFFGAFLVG

B1: TR4-Fc fusion protein (Fc fusion)
chain: ATIKLHDQSIGTQQWEHSPLGELCPPGSHRSERPGACNRCTEGVGYTNASNNLFACLPCTACKSDEEERSPCTTTRNTACQCKPGTFRNDNSAEMCRKCSTGCPRGMVKVKDCTPWSDIECVHKESGNGHNI
notes: also called TR4 (in the form of Fc fusion protein); not shown: Fc region
Turning to B1, the IC50 in test [1] was 0.491 µg/mL; in test [2] it was 0.284 µg/mL.
